{"source": "paper PMC8401255", "biological_target": "gramicidin A (Bacillus brevis)", "experiment": "single-channel electrophysiology on a planar lipid bilayer; gA in a free-standing DPhPC planar bilayer (painting method, n-decane); dimer (channel) lifetime recorded with an Axopatch amplifier for 30 min at 20 °C; lidocaine or tetracaine in the buffer at 1, 3, 6 and 10 mM; lifetime normalised to that without local anesthetic (tau/tau0); monomer to dimer"}
{"substance": "gramicidin A (peptide)", "values": [{"measurement": "normalized dimer lifetime (tau/tau0) at 1 mM lidocaine", "value": 1.33}, {"measurement": "normalized dimer lifetime (tau/tau0) at 1 mM tetracaine", "value": 1.88}, {"measurement": "normalized dimer lifetime (tau/tau0) at 10 mM lidocaine", "value": 3.66}, {"measurement": "normalized dimer lifetime (tau/tau0) at 10 mM tetracaine", "value": 6.85}]}
